{"source": "paper PMC11404569", "about": "“ECT2 peptide sequences outside the YTH domain regulate its m6A-RNA binding”", "binders": {"B1": {"name": "Probe I m6A (ssRNA)", "RNA": "AUGGGCCGUUCAUCUGCUAAAAGGACUGCUUUUGGGGCUUGU", "modifications": "m6A at position 25; thiol-protected 3' bases (*G*U)"}}, "conditions_in_all_cases": "protein: recombinant; tags: N-terminal His-SUMO; label: 5' FAM", "key": {"ECT2-Δα0": {"biological_target": "T1, ECT2-Δα0 (Arabidopsis thaliana, UniProt Q9LJE5 1-667, del419-427)", "T1 sequence": "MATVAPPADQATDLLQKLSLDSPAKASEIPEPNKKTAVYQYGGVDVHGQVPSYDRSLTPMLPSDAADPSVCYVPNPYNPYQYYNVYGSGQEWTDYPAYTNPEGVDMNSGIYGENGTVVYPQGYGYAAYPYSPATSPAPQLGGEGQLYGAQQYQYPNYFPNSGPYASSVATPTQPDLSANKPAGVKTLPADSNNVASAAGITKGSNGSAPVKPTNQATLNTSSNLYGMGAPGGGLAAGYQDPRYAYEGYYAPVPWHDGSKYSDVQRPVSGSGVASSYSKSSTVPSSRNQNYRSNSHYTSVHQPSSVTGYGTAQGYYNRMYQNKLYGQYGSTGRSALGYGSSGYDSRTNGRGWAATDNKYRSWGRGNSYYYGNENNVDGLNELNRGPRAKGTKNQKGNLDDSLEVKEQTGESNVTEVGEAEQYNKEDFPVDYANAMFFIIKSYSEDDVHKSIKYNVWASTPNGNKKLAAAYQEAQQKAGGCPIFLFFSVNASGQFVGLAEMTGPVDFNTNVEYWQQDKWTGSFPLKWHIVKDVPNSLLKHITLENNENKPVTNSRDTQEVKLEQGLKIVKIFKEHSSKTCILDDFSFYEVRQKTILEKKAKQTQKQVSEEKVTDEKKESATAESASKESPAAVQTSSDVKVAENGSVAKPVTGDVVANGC", "assay": "EMSA; close to full length, doublet kept; EMSA: 10 nM FAM-RNA; binding buffer 10 mM HEPES pH 8.0, 50 mM KCl, 1 mM EDTA, 0.05% Triton X-100, 5% glycerol, 10 µg/mL salmon DNA, 1 mM DTT, 40 U/mL RNasin; 20 min on ice; native 8% acrylamide TBE gel at 4°C"}, "ECT2-108 YTH mut": {"biological_target": "T2, ECT2-108 YTH mut (Arabidopsis thaliana, UniProt Q9LJE5 108-667, W464A;W521A;W526A)", "T2 sequence": "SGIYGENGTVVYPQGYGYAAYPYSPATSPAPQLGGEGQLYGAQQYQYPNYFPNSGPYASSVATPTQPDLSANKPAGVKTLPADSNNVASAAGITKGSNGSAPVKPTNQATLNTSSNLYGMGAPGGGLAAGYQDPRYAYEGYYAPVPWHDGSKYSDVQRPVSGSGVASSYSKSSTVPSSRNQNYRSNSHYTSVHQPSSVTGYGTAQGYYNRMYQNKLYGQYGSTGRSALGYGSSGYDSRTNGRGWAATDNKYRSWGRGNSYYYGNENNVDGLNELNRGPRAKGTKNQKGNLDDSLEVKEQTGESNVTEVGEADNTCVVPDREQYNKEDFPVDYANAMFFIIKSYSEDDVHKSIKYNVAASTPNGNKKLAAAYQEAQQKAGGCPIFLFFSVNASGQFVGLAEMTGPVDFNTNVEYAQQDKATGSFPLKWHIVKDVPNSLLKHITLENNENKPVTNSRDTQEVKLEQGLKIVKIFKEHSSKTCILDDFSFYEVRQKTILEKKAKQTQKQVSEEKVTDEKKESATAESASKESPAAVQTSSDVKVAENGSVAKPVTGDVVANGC", "assay": "EMSA; up to 500 nM; EMSA: 10 nM FAM-RNA; binding buffer 10 mM HEPES pH 8.0, 50 mM KCl, 1 mM EDTA, 0.05% Triton X-100, 5% glycerol, 10 µg/mL salmon DNA, 1 mM DTT, 40 U/mL RNasin; 20 min on ice; native 8% acrylamide TBE gel at 4°C"}, "ECT2-303 YTH mut": {"biological_target": "T3, ECT2-303 YTH mut (Arabidopsis thaliana, UniProt Q9LJE5 303-667, W464A;W521A;W526A)", "T3 sequence": "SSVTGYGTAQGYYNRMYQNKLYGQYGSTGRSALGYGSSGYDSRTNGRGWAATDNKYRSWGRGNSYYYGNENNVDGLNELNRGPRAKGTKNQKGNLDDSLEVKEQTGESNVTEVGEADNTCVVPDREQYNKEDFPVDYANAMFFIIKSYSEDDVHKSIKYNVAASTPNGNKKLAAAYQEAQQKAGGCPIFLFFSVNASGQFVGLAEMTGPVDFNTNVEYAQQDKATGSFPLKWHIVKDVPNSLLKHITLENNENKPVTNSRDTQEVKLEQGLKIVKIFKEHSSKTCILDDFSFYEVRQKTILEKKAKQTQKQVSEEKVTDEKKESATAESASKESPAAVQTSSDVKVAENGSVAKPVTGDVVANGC", "assay": "EMSA; up to 500 nM; EMSA: 10 nM FAM-RNA; binding buffer 10 mM HEPES pH 8.0, 50 mM KCl, 1 mM EDTA, 0.05% Triton X-100, 5% glycerol, 10 µg/mL salmon DNA, 1 mM DTT, 40 U/mL RNasin; 20 min on ice; native 8% acrylamide TBE gel at 4°C"}, "ECT2-Fl mut (YTH mut)": {"biological_target": "T4, ECT2-Fl mut (YTH mut) (Arabidopsis thaliana, UniProt Q9LJE5 1-667, W464A;W521A;W526A)", "T4 sequence": "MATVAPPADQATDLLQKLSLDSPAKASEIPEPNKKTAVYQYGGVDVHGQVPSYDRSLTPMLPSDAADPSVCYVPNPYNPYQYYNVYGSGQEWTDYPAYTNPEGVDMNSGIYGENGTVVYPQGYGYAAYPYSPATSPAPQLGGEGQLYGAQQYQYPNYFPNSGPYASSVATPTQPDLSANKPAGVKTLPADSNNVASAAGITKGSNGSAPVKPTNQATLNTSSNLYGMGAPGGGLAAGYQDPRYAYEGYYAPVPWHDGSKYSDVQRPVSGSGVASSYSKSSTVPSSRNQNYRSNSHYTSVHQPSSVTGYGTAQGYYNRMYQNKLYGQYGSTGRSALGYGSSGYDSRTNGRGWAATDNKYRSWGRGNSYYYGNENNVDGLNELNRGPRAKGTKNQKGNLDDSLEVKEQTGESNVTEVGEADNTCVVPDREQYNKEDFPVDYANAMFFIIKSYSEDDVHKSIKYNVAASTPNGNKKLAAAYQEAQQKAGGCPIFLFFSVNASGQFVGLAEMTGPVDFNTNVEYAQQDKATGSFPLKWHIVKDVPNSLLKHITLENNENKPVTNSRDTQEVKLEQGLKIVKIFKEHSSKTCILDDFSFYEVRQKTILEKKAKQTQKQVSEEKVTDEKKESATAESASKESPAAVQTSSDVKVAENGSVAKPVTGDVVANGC", "assay": "EMSA; EMSA: 10 nM FAM-RNA; binding buffer 10 mM HEPES pH 8.0, 50 mM KCl, 1 mM EDTA, 0.05% Triton X-100, 5% glycerol, 10 µg/mL salmon DNA, 1 mM DTT, 40 U/mL RNasin; 20 min on ice; native 8% acrylamide TBE gel at 4°C"}}}
{"binder": "B1", "values": [{"measurement": "binding result", "setting": "ECT2-Δα0", "result": "binds"}, {"measurement": "binding result", "setting": "ECT2-108 YTH mut", "result": "no binding"}, {"measurement": "binding result", "setting": "ECT2-303 YTH mut", "result": "no binding"}, {"measurement": "binding result", "setting": "ECT2-Fl mut (YTH mut)", "result": "no binding"}]}
